The assay deals with SARS-CoV-2 full-length nucleocapsid (N) protein (N-FL: 1-419) (SARS-CoV-2, UniProt P0DTC9 1-419). The assay can be described thus: ELISA. (In general: An ELISA detects its analyte on a solid surface through an enzyme-linked reagent.)

As usually defined, the EC50 is the concentration that produces a half-maximal response.

B1: human monoclonal antibody nCoV396, recombinant IgG1 (antibody, V domains shown)
VH: QVQLVESGGGVVQPGRSLRLSCAASGFTFSSYIMHWVRQAPGKGLEWVAVISYDGSNEAYADSVKGRFTISRDNSKNTLYLQMSSLRAEDTGVYYCARETGDYSSSWYDSWGRGTLVTVSS
VL: QLVLTQSPSASASLGASVKLTCTLSSGHSNYAIAWHQQQPEKGPRYLMKVNSDGSHTKGDGIPDRFSGSSSGAERYLTISSLQSEDEADYYCQTWGTGIQVFGGGTKLTVL
In turn, B1 showed an EC50 of 3.2 ng/mL.

The record behind these values is PMC8113585 (2020).
